# Measurements published in US20220112296A1 (Chugai, published 2022).
# Positions count from the first letter of the chain named.
# B1: H0868L0581 (antibody, V domains shown)
# VH: QVQLVESGGGLVQPGRSLRLSCAASGFKFSNVWMHWVRQAPGKGLEWVAQIKDKYNAYAAYYAPSVKGRFTISRDDSKNSIYLQMNSLKTEDTAVYYCHYVHYASASTLLPAFGVDAWGQGTTVTVSS
# VL: DIVMTQSPLSLPVTPGEPASISCQPSQEVVHMNRNTYLHWYQQKPGQAPRLLIYKVSNRFPGVPDRFSGSGSGTDFTLKISRVEAEDVGVYYCAQGTSHPFTFGQGTKLEIK
# B2: H0883 (antibody, V domains shown)
# VH: B1 VH with K28T, V32A, Y55G, H99R
# VL: B1 VL with P25A, V29L, H99V
# notes: also called H0883 (CD3); H883
# B3: H1647L0581 (antibody, V domains shown)
# VH: B1 VH with V32T, M34F, K54Y, A57D, F113E
# VL: B1 VL
# notes: also called H1647L0581 (CD137); Anti-CD137 variant
# B4: H0888L0581 (antibody, V domains shown)
# VH: B1 VH with Y55W, V101I, V115I
# VL: B1 VL
# notes: Dual-Ig, captured by anti-human Fc; also called dBBDu183H0888/dBBDu072L0581
# B5: H1571L0581 (antibody, V domains shown)
# VH: B1 VH with M34F, A60T
# VL: B1 VL
# B6: GPC3 ERY22-B (bispecific antibody, human IgG1, kappa, L234A L235A, N297A)
# heavy 1: DIVMTQSPLSLPVTPGEPASISCRSSQSLVHSNRNTYLHWYQQKPGQAPRLLIYKVSNRFSGVPDRFSGSGSGTDFTLKISRVEAEDVGVYYCSQNTHVPPTFGQGTKLEIKSSASTKGPSVFPLAPSSKSTSGGTAALGCLVKDYFPEPVTVSWNSGALTSGVHTFPAVLQSSGLYSLSSVVTVPSSSLGTQTYICNVNHKPSNTKVDKKVEPKSCDKTHTCPPCPAPEAAGGPSVFLFPPKPKDTLMISRTPEVTCVVVDVSHEDPEVKFNWYVDGVEVHNAKTKPREEQYASTYRVVSVLTVLHQDWLNGKEYKCKVSNKALPAPIEKTISKAKGQPREPQVCTLPPSRDELTKNQVSLWCLVKGFYPSDIAVEWESNGQPENNYKTTPPVLDSDGSFFLYSKLTVDKSRWQQGNVFSCSVMHEALHNHYTQKSLSLSPHHHHHHHH
# light 1: QVQLVQSGAEVKKPGASVKVSCKASGYTFTDYEMHWIRQPPGQGLEWIGAIDPKTGDTAYSQKFKGRVTLTADKSTSTAYMELSSLTSEDTAVYYCTRFYSYTYWGQGTLVTVSSASVAAPSVFIFPPSDEQLKSGTASVVCLLNNFYPREAKVQWKVDNALQSGNSQESVTEQDSKDSTYSLSSTLTLSKADYEKHKVYACEVTHQGLSSPVTKSFNRGEC
# heavy 2: QVQLQQWGAGLLKPSETLSLTCAVYGGSFSGYYWSWIRQSPEKGLEWIGEINHGGYVTYNPSLESRVTISVDTSKNQFSLKLSSVTAADTAVYYCARDYGPGNYDWYFDLWGRGTLVTVSSASTKGPSVFPLAPSSKSTSGGTAALGCLVKDYFPEPVTVSWNSGALTSGVHTFPAVLQSSGLYSLSSVVTVPSSSLGTQTYICNVNHKPSNTKVDKKVEPKSCDKTHTCPPCPAPEAAGGPSVFLFPPKPKDTLMISRTPEVTCVVVDVSHEDPEVKFNWYVDGVEVHNAKTKPREEQYASTYRVVSVLTVLHQDWLNGKEYKCKVSNKALPAPIEKTISKAKGQPREPQVYTLPPSRCELTKNQVSLSCAVKGFYPSDIAVEWESNGQPENNYKTTPPVLDSDGSFFLVSKLTVDKSRWQQGNVFSCSVMHEALHNHYTQKSLSLSP
# light 2: not shown
# B7: GPC3 ERY22-dBBDu_167/L091 (bispecific antibody, human IgG1, kappa, L234A L235A, N297A)
# heavy 1: B6 heavy 1
# light 1: B6 light 1
# heavy 2: QVQLVESGGGLVQPGRSLRLSCAASGFTFSNAWMHWVRQAPGKGLEWVAQIKDKGNLYAAYYAPSVKGRFTISRDDSKNSIYLQMNSLKTEDTAVYYCHYVHYASAGGGLPGFGVDAWGQGTTVTVSSASTKGPSVFPLAPSSKSTSGGTAALGCLVKDYFPEPVTVSWNSGALTSGVHTFPAVLQSSGLYSLSSVVTVPSSSLGTQTYICNVNHKPSNTKVDKKVEPKSCDKTHTCPPCPAPEAAGGPSVFLFPPKPKDTLMISRTPEVTCVVVDVSHEDPEVKFNWYVDGVEVHNAKTKPREEQYASTYRVVSVLTVLHQDWLNGKEYKCKVSNKALPAPIEKTISKAKGQPREPQVYTLPPSRCELTKNQVSLSCAVKGFYPSDIAVEWESNGQPENNYKTTPPVLDSDGSFFLVSKLTVDKSRWQQGNVFSCSVMHEALHNHYTQKSLSLSPDYKDDDDK
# light 2: DIVMTQSPLSLPVTPGEPASISCSASESLLHNNRHTYLHWYQQKPGQAPRLLIYRVSNRFNGVPDRFSGSGSGTDFTLKISRVEAEDVGVYYCGQGTQVPFTFGQGTKLEIKRTVAAPSVFIFPPSDEQLKSGTASVVCLLNNFYPREAKVQWKVDNALQSGNSQESVTEQDSKDSTYSLSSTLTLSKADYEKHKVYACEVTHQGLSSPVTKSFNRGEC
# B8: GPC3 ERY22-dBBDu_186/L096 (bispecific antibody, human IgG1, kappa, L234A L235A, N297A)
# heavy 1: B6 heavy 1
# light 1: B6 light 1
# heavy 2: B7 heavy 2 with K54R, G55S, L57Q, A60T, S105Q, G107S, G108T, G109V, G112A
# light 2: DIVMTQSPLSLPVTPGEPASISCRTSQELVHINRYIFLHWYQQKPGQAPRLLIYKVYNRFQGVPDRFSGSGSGTDFTLKISRVEAEDVGVYYCAQGTSVPYTFGQGTKLEIKRTVAAPSVFIFPPSDEQLKSGTASVVCLLNNFYPREAKVQWKVDNALQSGNSQESVTEQDSKDSTYSLSSTLTLSKADYEKHKVYACEVTHQGLSSPVTKSFNRGEC
# B9: GPC3 ERY22-dBBDu_189/L116 (bispecific antibody, human IgG1, kappa, L234A L235A, N297A)
# heavy 1: B6 heavy 1
# light 1: B6 light 1
# heavy 2: B7 heavy 2 with V48I, K54R, G55S, L57Q, A60T, S105Q, G107S, G108S, G109L, G112S
# light 2: B8 light 2 with R24S, T25S, I32A, Y35Q, F37Y, Y57A, Q61P, S98Q, Y101F
# B10: GPC3 ERY22-dBBDu_183/L063 (bispecific antibody, human IgG1, kappa, L234A L235A, N297A)
# heavy 1: B6 heavy 1
# light 1: B6 light 1
# heavy 2: B7 heavy 2 with L57A, G107S, G108T, G109V, G112A
# light 2: B8 light 2 with T25S, I32T, Y35H, I36T, F37Y, Y57S, Q61P, S98Q, Y101F
# B11: GPC3 ERY22-dBBDu_186/L106 (bispecific antibody, human IgG1, kappa, L234A L235A, N297A)
# heavy 1: B6 heavy 1
# light 1: B6 light 1
# heavy 2: B7 heavy 2 with K54R, G55S, L57Q, A60T, S105Q, G107S, G108T, G109V, G112A
# light 2: B8 light 2 with R24S, Q27E, V30L, Y35F, Y57A, Q61M, T97S, S98Q, Y101F
# B12: GPC3 ERY22-dBBDu_183/L072 (bispecific antibody, human IgG1, kappa, L234A L235A, N297A)
# heavy 1: B6 heavy 1
# light 1: B6 light 1
# heavy 2: B7 heavy 2 with L57A, G107S, G108T, G109V, G112A
# light 2: B8 light 2 with R24Q, T25A, I32M, Y35N, I36T, F37Y, Y57S, Q61P, Y101F
# B13: GPC3 ERY22-dBBDu_189/L119 (bispecific antibody, human IgG1, kappa, L234A L235A, N297A)
# heavy 1: B6 heavy 1
# light 1: B6 light 1
# heavy 2: B7 heavy 2 with V48I, K54R, G55S, L57Q, A60T, S105Q, G107S, G108S, G109L, G112S
# light 2: B8 light 2 with R24T, T25A, Y35F, Y57S, Q61I, T97S, S98Q, Y101F
# B14: GPC3 ERY22-dBBDu_186/L098 (bispecific antibody, human IgG1, kappa, L234A L235A, N297A)
# heavy 1: B6 heavy 1
# light 1: B6 light 1
# heavy 2: B7 heavy 2 with K54R, G55S, L57Q, A60T, S105Q, G107S, G108T, G109V, G112A
# light 2: B8 light 2 with R24A, T25A, Q27E, Y57S, Q61I, T97S, S98Q, Y101F
# Assays:
# [1] = target: T1, Human CD3eg linker (human); test: SPR Biacore T200, 25 C, Ab captured
# T1 construct: CD3 epsilon and gamma subunits joined by a 29-mer linker, C-terminal Flag-tag (in the entry); also called recombinant human CD3
# T1 chain: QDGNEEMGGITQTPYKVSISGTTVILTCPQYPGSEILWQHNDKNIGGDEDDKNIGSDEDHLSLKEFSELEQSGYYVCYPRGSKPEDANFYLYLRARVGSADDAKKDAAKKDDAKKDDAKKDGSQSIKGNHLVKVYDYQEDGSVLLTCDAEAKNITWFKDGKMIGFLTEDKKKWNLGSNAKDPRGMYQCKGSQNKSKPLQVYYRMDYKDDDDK
# Experimental: (§1) Anti-human Fc (GE Healthcare) was immobilized onto all flow cells of a CM4 sensor chip using amine coupling kit (GE Healthcare). […] All antibodies and analytes were prepared in ACES pH 7.4 containing 20 mM ACES, 150 mM NaCl, 0.05% Tween 20, 0.005% NaN3. Sensor surface was regenerated each cycle with 3M MgCl2.
# [2] = target: T2, Human CD137 ECD (human); test: SPR Biacore T200, 37 C, Ab captured
# T2 construct: C-terminal His-tag and biotin acceptor peptide are in the entry; also called human CD137 extracellular domain; recombinant human CD137
# Experimental: as §1
# [3] = target: human CD137 (4-1BB) on cells (human, UniProt Q07011 24-255); test: cell-based or functional assay
# human CD137 (4-1BB) on cells, sequence (Q07011 24-255): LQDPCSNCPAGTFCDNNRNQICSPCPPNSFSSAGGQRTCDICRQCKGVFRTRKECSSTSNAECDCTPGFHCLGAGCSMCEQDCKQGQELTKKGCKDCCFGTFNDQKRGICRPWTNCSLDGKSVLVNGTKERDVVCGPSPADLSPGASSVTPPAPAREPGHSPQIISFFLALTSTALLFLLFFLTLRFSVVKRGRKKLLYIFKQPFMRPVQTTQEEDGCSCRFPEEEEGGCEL
# T2 sequence (chain, as listed by the source limits assumed): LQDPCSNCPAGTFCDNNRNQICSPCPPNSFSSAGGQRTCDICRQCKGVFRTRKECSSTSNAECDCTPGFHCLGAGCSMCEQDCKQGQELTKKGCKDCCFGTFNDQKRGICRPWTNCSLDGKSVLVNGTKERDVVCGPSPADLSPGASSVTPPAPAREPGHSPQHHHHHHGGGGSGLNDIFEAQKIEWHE
Binder,Kd [1],Kd [2],"Agonistic activity compared to B, 6 ug/mL [3]","Agonistic activity compared to B, 30 ug/mL [3]","Agonistic activity compared to Ctrl, 6 ug/mL [3]","Agonistic activity compared to Ctrl, 30 ug/mL [3]","hIL-6 (pg/mL), 6 ug/mL antibody [3]","hIL-6 (pg/mL), 30 ug/mL antibody [3]"
B1,173 nM,108 nM,,,,,,
B2,110 nM,,,,,,,
B3,,60.5 nM,,,,,,
B4,20.2 nM,208 nM,,,,,,
B5,123 nM,85 nM,,,,,,
B6,,,100%,100%,347%,380%,4520 pg/mL,4340 pg/mL
B7,,,-2.21%,1.1%,-7.68%,4.19%,935 pg/mL,944 pg/mL
B8,,,19%,24.2%,66.1%,91.7%,1680 pg/mL,1740 pg/mL
B9,,,8.28%,19.2%,28.7%,72.9%,1300 pg/mL,1570 pg/mL
B10,,,-1.27%,6.51%,-4.41%,24.7%,968 pg/mL,1130 pg/mL
B11,,,13.2%,19.4%,45.8%,73.6%,1480 pg/mL,1570 pg/mL
B12,,,3.21%,15.8%,11.1%,59.8%,1130 pg/mL,1450 pg/mL
B13,,,6.92%,20.4%,24%,77.3%,1260 pg/mL,1610 pg/mL
B14,,,13.9%,24.6%,48.3%,93.5%,1500 pg/mL,1750 pg/mL
